Experimental data as given in paper PMC2572193, “Structural Analysis of the Interactions Between Paxillin LD Motifs and α-Parvin” (Structure(London, England:1993), 2008).
“Also recorded” adds a separate entry of the source. Where a SMILES comes first, the peptide text is derived from it. Where no end group is shown, it is not given here. The star is where a group is joined. 5FAM = O=C1OC2(c3ccc(O)cc3Oc3cc(O)ccc32)c2ccc(C(=O)*)cc21

How the values were obtained:
[1] = biological target: T1, α-parvin-CHC (residues 242–372) (Homo sapiens, UniProt Q9NVD7); assay: NMR 1H-15N HSQC titration of 15N-enriched α-parvin-CHC with LD peptides; assay type: binding; conditions: for KD / affinity range in words: NMR titration, 50 mM sodium phosphate, 100 mM NaCl, pH 6.9, 25°C
T1 construct: α-parvin-CHC (242–372) were subcloned; GST (N, cleaved yes); made in house; host or cells: Escherichia coli BL21
T1 sequence (Q9NVD7 242-372): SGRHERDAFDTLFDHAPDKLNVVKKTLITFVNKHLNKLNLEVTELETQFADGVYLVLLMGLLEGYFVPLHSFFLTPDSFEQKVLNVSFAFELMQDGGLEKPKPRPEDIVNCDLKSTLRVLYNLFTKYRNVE

[2] = Solubility of LD peptide noted in NMR titration; assay type: physicochemical; conditions: NMR titration buffer, 50 mM sodium phosphate, 100 mM NaCl, pH 6.9
Experimental: Figure S2. Determination of KD-Values for the Interaction of α−Parvin-CHC w ith LD Peptides […]
Titrations were performed with peptides representing the LD1 (A), LD 2(B), LD3 (C), LD4 (D), and […]
δ∆(1H15N) > 0.2 ppm for LD1 and LD2) were fitted globally to a single-site model (see experimental procedures). The errors refer to the fit only and exclude experimental errors. Note […]
respectively. No value could be derived for LD5 due to its low affinity. The KD-value for LD1 represents the weighted average over both antiparallel binding orientations, which exchange fast […]

[3] = biological target: paxillin LD1 (Homo sapiens) (UniProt P49023); conditions: cited from earlier work
[4] = biological target: T2, α-parvin-CHC (C-terminal calponin homology domain fragment of human α-parvin, residues 242-372) (human, UniProt Q9NVD7 242-372); assay: NMR titration; 1H-15N HSQC of 235 μM 15N-enriched α-parvin-CHC titrated with LD peptide; 50 mM sodium phosphate, 100 mM NaCl, 2 mM DTT, 5% D2O, pH 6.9, 25°C; global fit to a single-site model; conditions: both partners purified
T2 construct: α-parvin, human, residues 242-372: the entire C-terminal CH domain and a portion of the inter-CH domain linker; Expressed from pGEX-6P1 (BamHI/EcoRI); also called type-5 CH domain of α-parvin; actopaxin; source: E. coli BL21, GST fusion, purified (glutathione sepharose, 3C-protease cleavage, Superdex 75); 15N-enriched for NMR
T2 sequence (looked up): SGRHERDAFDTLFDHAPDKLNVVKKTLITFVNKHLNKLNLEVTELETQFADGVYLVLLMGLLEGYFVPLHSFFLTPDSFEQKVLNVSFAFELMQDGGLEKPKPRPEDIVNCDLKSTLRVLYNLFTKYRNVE

[5] = biological target: T3, full-length human α-parvin (1-372) (human, UniProt Q9NVD7 1-372); assay: fluorescence polarisation; fluorescence anisotropy; 50 nM 5-FAM-labeled LD1 peptide, protein up to 300 μM; 100 mM potassium phosphate, 2 mM DTT, pH 8.0, 25°C; global fit to a single-site model; conditions: both partners purified
T3 construct: α-parvin, human, full length, residues 1-372; Expressed from pGEX-6P1 (EcoRI/EcoRI); also called full-length α-parvin; actopaxin; source: E. coli BL21, GST fusion, purified (glutathione sepharose, 3C-protease cleavage, MonoQ)
T3 sequence (looked up): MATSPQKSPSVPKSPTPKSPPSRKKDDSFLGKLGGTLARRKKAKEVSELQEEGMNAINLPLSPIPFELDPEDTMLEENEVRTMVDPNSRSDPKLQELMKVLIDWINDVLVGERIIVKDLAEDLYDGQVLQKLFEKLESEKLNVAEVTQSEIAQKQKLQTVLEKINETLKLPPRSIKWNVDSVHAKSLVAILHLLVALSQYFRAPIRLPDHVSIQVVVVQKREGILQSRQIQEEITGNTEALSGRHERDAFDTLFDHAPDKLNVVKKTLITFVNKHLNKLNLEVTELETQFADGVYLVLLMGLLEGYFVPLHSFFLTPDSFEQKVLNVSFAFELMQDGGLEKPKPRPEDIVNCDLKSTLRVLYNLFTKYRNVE

[6] = biological target: T2, α-parvin-CHC (C-terminal calponin …); assay: as above; conditions: both partners purified

Molecule	KD / affinity range in words [1]	Kd [4]	further results
CC[C@H](C)[C@H](NC(=O)[C@H](Cc1c[nH]cn1)NC(=O)[C@H](CO)NC(=O)[C@@H](NC(=O)[C@@H](NC(=O)[C@H](CO)NC(=O)[C@H](CCC(=O)O)NC(=O)[C@H](CC(C)C)NC(=O)[C@H](CC(=O)O)NC(=O)[C@H](C)NC(=O)[C@H](CC(C)C)NC(=O)[C@H](CC(C)C)NC(=O)[C@H](C)NC(=O)[C@H](CC(=O)O)NC(=O)[C@H](CC(C)C)NC(=O)[C@H](CC(=O)O)NC(=O)[C@H](CC(=O)O)NC(=O)[C@@H](N)CCSC)[C@@H](C)O)[C@@H](C)O)C(=O)N[C@@H](CO)C(=O)N[C@@H](CCCCN)C(=O)O [LD1] (H-MDDLDALLADLESTTSHISK-OH)	micromolar range		
CC(C)C[C@H](NC(=O)[C@H](CCC(=O)O)NC(=O)[C@H](CC(C)C)NC(=O)[C@H](CC(C)C)NC(=O)[C@H](CC(C)C)NC(=O)[C@H](CCCNC(=N)N)NC(=O)[C@H](CC(=O)O)NC(=O)[C@H](CC(C)C)NC(=O)[C@H](CCC(=O)O)NC(=O)[C@H](CO)NC(=O)[C@H](CC(C)C)NC(=O)[C@@H](N)CC(N)=O)C(=O)N[C@@H](CC(N)=O)C(=O)N[C@@H](C)C(=O)N[C@H](C(=O)N[C@@H](CCC(N)=O)C(=O)N[C@@H](Cc1c[nH]cn1)C(=O)N[C@@H](CC(N)=O)C(=O)N1CCC[C@H]1C(=O)N1CCC[C@H]1C(=O)O)C(C)C [LD2]	micromolar range		
CC(C)C[C@H](NC(=O)[C@H](CCC(=O)O)NC(=O)[C@H](CC(=O)O)NC(=O)[C@H](CC(C)C)NC(=O)[C@H](CC(C)C)NC(=O)[C@H](CO)NC(=O)[C@H](CCC(=O)O)NC(=O)[C@@H](NC(=O)[C@H](CO)NC(=O)[C@@H]1CCCN1C(=O)[C@H](CCCNC(=N)N)NC(=O)[C@@H](N)C(C)C)C(C)C)C(=O)N[C@@H](CCC(=O)O)C(=O)N[C@@H](CO)C(=O)N[C@@H](CO)C(=O)N[C@H](C(=O)N1CCC[C@H]1C(=O)N[C@@H](CO)C(=O)N1CCC[C@H]1C(=O)N[C@H](C(=O)O)C(C)C)C(C)C [LD3] (H-VRPSVESLLDELESSVPSPV-OH)	relatively low affinity; also recorded: millimolar range		
CSCC[C@H](NC(=O)[C@H](Cc1ccccc1)NC(=O)[C@H](CCCCN)NC(=O)[C@H](Cc1ccccc1)NC(=O)[C@H](CC(=O)O)NC(=O)[C@H](CO)NC(=O)[C@H](CC(C)C)NC(=O)[C@H](CO)NC(=O)[C@H](C)NC(=O)[C@H](CCSC)NC(=O)[C@H](CC(C)C)NC(=O)[C@H](CCC(=O)O)NC(=O)[C@H](CC(=O)O)NC(=O)[C@H](CC(C)C)NC(=O)[C@H](CCC(=O)O)NC(=O)[C@H](CCCNC(=N)N)NC(=O)[C@@H](NC(=O)[C@H](C)N)[C@@H](C)O)C(=O)N[C@@H](C)C(=O)N[C@@H](CCC(N)=O)C(=O)O [LD4] (H-ATRELDELMASLSDFKFMAQ-OH)	micromolar range		solubility (in words) [2]: poor solubility
PGSQLDSMLGSLQSDLNKLG [LD5]	low affinity; also recorded: millimolar range; also recorded: mM range ^a		
PROXYL-labeled LD1: N-terminally blocked LD1 with N-terminal methionine replaced by cysteine, labeled with 3-maleimido-PROXYL (C(3‑maleimido‑PROXYL)DDLDALLADLESTTSHISK; also: N-terminally blocked (group not given here))			KD-value compared with underivatized LD1 peptide ([1]; data not shown): the same
α-parvin CHC (from UniProt Q9NVD7)			Kd [3]: 1200 µM
MDDLDALLADLESTTSHISK (paxillin, human, LD1 motif, residues 1-20; source: synthetic peptide, bought: Severn Biotech) [paxillin LD1 peptide (human paxillin residues 1-20)]		96 ± 2 µM	
NLSELDRLLLELNAVQHNPP (paxillin, human, LD2 motif, residues 141-160; source: synthetic peptide, bought: Severn Biotech) [paxillin LD2 peptide (human paxillin residues 141-160)]		204 ± 3 µM	
VRPSVESLLDELESSVPSPV (paxillin, human, LD3 motif, residues 213-232; source: synthetic peptide, bought: Severn Biotech) [paxillin LD3 peptide (human paxillin residues 213-232)]		2300 ± 100 µM	
ATRELDELMASLSDFKFMAQ (paxillin, human, LD4 motif, residues 262-281; source: synthetic peptide, bought: Severn Biotech) [paxillin LD4 peptide (human paxillin residues 262-281)]		140 ± 30 µM	
MDDLDALLADLESTTSHISK(5FAM) (paxillin, human, LD1 motif, residues 1-20; also called fluorophore-labeled LD1 peptide; source: synthetic peptide, bought: Severn Biotech) [5-FAM-labeled LD1 peptide (paxillin residues 1-20)]			Kd [5]: 130 ± 22 µM; Kd [6]: 120 ± 20 µM
